Data as given in US20160031999A1 (CSL, published 2016).
Where a chain is given by its changes, count along the chain named. Each block holds one binder with its values, some of them ahead of it.

Columns and labels:
[1] = molecular target: T1, human IL-11Rα (form used in the assay not stated) (human, UniProt Q14626 23-363, limits assumed); experiment: Biacore, pH 8.5, 37°C; some heterogeneity observed, an accurate KD difficult to determine
T1 construct: also called hIL-11R; hIL-11Rα
T1 sequence: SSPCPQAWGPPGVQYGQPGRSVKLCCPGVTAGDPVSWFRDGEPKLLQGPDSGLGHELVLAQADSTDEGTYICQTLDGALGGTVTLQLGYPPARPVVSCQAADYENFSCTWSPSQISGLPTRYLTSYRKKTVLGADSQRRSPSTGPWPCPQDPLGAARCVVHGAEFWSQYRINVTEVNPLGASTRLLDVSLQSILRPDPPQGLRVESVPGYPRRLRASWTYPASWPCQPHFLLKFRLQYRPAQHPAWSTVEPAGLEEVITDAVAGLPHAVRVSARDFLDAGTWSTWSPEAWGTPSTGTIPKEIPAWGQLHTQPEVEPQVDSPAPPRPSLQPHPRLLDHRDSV

[2] = molecular target: T2, human IL-11Rα on transfected cells (human, UniProt Q14626 23-422); experiment: cell-based or functional assay
T2 sequence: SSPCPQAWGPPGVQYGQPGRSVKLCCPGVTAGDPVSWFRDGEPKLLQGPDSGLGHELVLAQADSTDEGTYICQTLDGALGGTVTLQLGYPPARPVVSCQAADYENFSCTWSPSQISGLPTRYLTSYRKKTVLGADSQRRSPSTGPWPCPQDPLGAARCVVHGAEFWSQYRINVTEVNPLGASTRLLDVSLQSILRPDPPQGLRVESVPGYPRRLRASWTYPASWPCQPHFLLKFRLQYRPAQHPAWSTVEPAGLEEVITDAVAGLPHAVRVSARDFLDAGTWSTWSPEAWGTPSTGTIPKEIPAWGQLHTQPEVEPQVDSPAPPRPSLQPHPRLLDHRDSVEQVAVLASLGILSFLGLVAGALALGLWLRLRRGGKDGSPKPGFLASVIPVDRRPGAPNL

[3] = molecular target: T1, human IL-11Rα (form used in the assay …); experiment: Biacore, pH 8.5, 37°C

B1: hu8E2-TS-213 (antibody, V domains shown)
VH: EVQLLESGGGLVQPGGSLRLSCAASGFTFSWYSMTWVRQAPGKGLEWVSSIVPSGGHTQYADSVKGRFTISRDNSKNTLYLQMNSLRAEDTAVYYCAKGPGWGQFAVWGRGTLVTVSS
VL: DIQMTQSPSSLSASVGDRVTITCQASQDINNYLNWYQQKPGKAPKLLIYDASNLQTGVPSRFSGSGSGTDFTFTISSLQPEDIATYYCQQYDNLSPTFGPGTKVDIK
Kd [1]: > 9 nM
Fold increase in potency relative to 8E2 [2]: 1.2 fold
IC50 [2]: 0.51 µg/mL

B4: hu8E2-TS-312 (antibody, V domains shown)
VH: B1 VH with Q104S, A106D, V107L
VL: DIQMTQSPSSLSASVGDRVTITCQASQDIGQYVEWYQQKPGKAPKLLIYDASNLQTGVPSRFSGSGSGTDFTFTISSLQPEDIATYYCQQYDNLSPTFGPGTKVDIK
Fold increase in potency relative to 8E2 [2]: 1.2 fold
IC50 [2]: 0.29 µg/mL
Kd [3]: 1.76 nM

B6: hu8E2-TS-307 (antibody, V domains shown)
VH: B1 VH with Q104S, A106D, V107L
VL: B4 VL with I29V, G30S, Q31M
Fold increase in potency relative to 8E2 [2]: 1.9 fold
IC50 [2]: 0.25 µg/mL
Kd [3]: 1.32 nM

B8: hu8E2-TS-305 (antibody, V domains shown)
VH: B1 VH with Q104S, A106D, V107L
VL: B4 VL with I29V, Q31I
Fold increase in potency relative to 8E2 [2]: 2.1 fold
IC50 [2]: 0.23 µg/mL
Kd [3]: 1.58 nM

Continued by falling Kd [3], values first:

Fold increase in potency relative to 8E2 [2]: 1.1 fold
IC50 [2]: 0.33 µg/mL
Kd [3]: 6.01 nM
B2: hu8E2-TS-322 (antibody, V domains shown)
VH: B1 VH with Q104S, A106D, V107L
VL: B4 VL with I29V, G30H, Q31H, V33M

Fold increase in potency relative to 8E2 [2]: 0.7 fold
IC50 [2]: 0.51 µg/mL
Kd [3]: 5.56 nM
B3: hu8E2-TS-313 (antibody, V domains shown)
VH: B1 VH with Q104S, A106D, V107L
VL: B4 VL with I29V, G30S, Q31G

Fold increase in potency relative to 8E2 [2]: 0.4 fold
IC50 [2]: 0.84 µg/mL
Kd [3]: 2.09 nM
B5: hu8E2-TS-310 (antibody, V domains shown)
VH: B1 VH with Q104S, A106D, V107L
VL: B4 VL with I29V, G30A, Q31M, V33I

Fold increase in potency relative to 8E2 [2]: 0.6 fold
IC50 [2]: 0.6 µg/mL
Kd [3]: 1.69 nM
B9: hu8E2-TS-311 (antibody, V domains shown)
VH: B1 VH with Q104S, A106D, V107L
VL: B4 VL with I29V, G30S, V33I

Fold increase in potency relative to 8E2 [2]: 3.3 fold
IC50 [2]: 0.15 µg/mL
Kd [3]: 1.07 nM
B7: hu8E2-TS-306 (antibody, V domains shown)
VH: B1 VH with Q104S, A106D, V107L
VL: B4 VL with I29V, G30D, Q31K
